Experimental findings from publication PMC6592955 are described below.

The target of one experiment is calmodulin (CaM) (UniProt P0DP26). Briefly: 2pFLIM-FRET in single dendritic spines. Conditions: reference: wild type.
The target in experiment [1] is mEGFP-CaMKIIα^T305A/T306A (Rattus norvegicus) (UniProt P11275). The experiment is described as follows: FRET or BRET; 2pFLIM-FRET in single dendritic spines of CA1 pyramidal neurons, organotypic hippocampal slices; single glutamate uncaging pulse; room temperature; decay fitted with a single exponential; T286A in slices of Camk2a^T286A knock-in mice.
Experiment [2] concerns the target mEGFP-CaMKIIα^T286A (Rattus norvegicus) (UniProt P11275). Described as above.
Experiment [3] shares this target. Briefly: FRET or BRET; 2pFLIM-FRET in single dendritic spines of CA1 pyramidal neurons, organotypic hippocampal slices; glutamate uncaging at near physiological temperature (34–35 °C); Supplementary Fig. 2.
Experiment [4] deals with mEGFP-CaMKIIα (wildtype) (Rattus norvegicus) (UniProt P11275). Briefly: FRET or BRET; 2pFLIM-FRET in single dendritic spines of CA1 pyramidal neurons, organotypic hippocampal slices; single glutamate uncaging pulse; room temperature; decay fitted with a single exponential; T286A in slices of Camk2a^T286A knock-in mice.
For experiment [5] the target is unchanged. The experiment is described as follows: FRET or BRET; 2pFLIM-FRET in single dendritic spines of CA1 pyramidal neurons, organotypic hippocampal slices; glutamate uncaging at near physiological temperature (34–35 °C); Supplementary Fig. 2.

CaMKIIα (from UniProt P11275) T286A: in the experiment with calmodulin (CaM) (sites T286), the “other: dissociation time constant” value was “weaker; reference 2.9 ± 0.3” and the “other: fast dissociation time constant” value is “weaker; reference 3.2 ± 0.6”.

Take “CaMKIIα (from UniProt P11275) T305A/T306A”: in the experiment with calmodulin (CaM) (sites T305,T306), the “other: dissociation time constant” value is “stronger; reference 2.9 ± 0.3” and the “other: fast dissociation time constant” value was “stronger; reference 3.2 ± 0.6”.

Turning to “mCherry-CaM (from UniProt P0DP26 1-149) (natural protein)”, the dissociation time constant (tau) in experiment [1] was found to be 7.5 s; in experiment [2], 1.2 s; in experiment [3], 0.3 s.

In experiment [4], “mCherry-CaM (from UniProt P0DP26 1-149) (natural protein; other documents disagree on this pair)” registered a dissociation time constant (tau) of 2.9 s and an off-rate (koff) of 0.33 s⁻¹. This substance showed a dissociation time constant (tau) in experiment [5] of 0.4 s.
